Here are results for 41 sequences from the nanobody polyreactivity screen of Harvey et al. (2022).

This data set in a line: yeast display, Sf9 membrane polyspecificity reagent, FACS + sequencing; frameworks hold sequencing errors. The gist of the method: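 Genes from sorted yeast were amplified by colony PCR, read by MiSeq 2 × 250 sequencing and filtered on CDR length. These cells carried a synthetic nanobody library in Saccharomyces cerevisiae BJ5465 and were sorted by FACS into low and high (top ~1%) gates on anti-HA and streptavidin fluorescence. Polyreactivity is labelled according to the gate of origin.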
Regarding “QDQLEESGGGLVQEGGSLRLSCAASGFIFPRYAMGWYRQAPGKERELVAAISRSGGITRYADSVKGRFSISRDNAKNTVYLQMISLKPEDTAVYYCAAARSYWAKYYYWGQGTQVTVSS”, the “polyreactivity (PSR sort gate)” value is “high polyreactivity”.
To “QDQLGDSGGGLVQAGGSLRLSCAASGLTFYRYAMGWYRQAPGKERELVAAIRWNSGSTYYADSVKGRFTISRVNAKNTVYLQMNSLKPEDTAVYYCAATAIYPSAWRMAYWGQGTQVTVSS” belongs “high polyreactivity”; to “QDQLGESGGGLVQAGGSLRLICAASGRIFVSNTMGCYRQAPGKERELVATISRRGGITYYADSVKGRFTISRDNAKNTVYLQMNSLKPEDTAVYYCAAESYSFWLYDYCGQGTQVTVSS”, “high polyreactivity”; to “QDQLGESGGGLVQAGGSLRLSCAASGSIFETYVMGWYRQAPGKERELVAAINSGGSTNYADSVKGRFTISRDNAKNTVYLQMNSLKAEDTAVYYCNADWFTPAQPWYRYFIRYDYWGQGTQVTVSS”, “low polyreactivity”.
Then “QDQLLESGAGLVQAGGSLRLSCAASGRIFDYNVMGWYRQAPGKERELVADITSSGGSTYYADSVKGRFTISRDNAKNTVYLQMNSLKPEDTAVYYCYISYFTIYDDFYYWGQGTQVTVSS”, with “low polyreactivity”; and “QDQLLESGGGLVQAGGSLRLSCAASGSILQDYAMGWYRQAPGKERELVAAISNSGDSTYYADSLKGRFTISRENAKTTVYLQLNSLKPEDTAVYYCNAAVYPYAMYSGGLDYDYWGHGTQVTVSS”, with “low polyreactivity”.
Then “QDQLVDSCGGLVQARGSLRLSCAASGSIFGDYAMGWYRQAPGKEWELVAAISDTDSTNDADSVKGRFTISRDNAKNTVYLQMNSLKREDTAVYSCNGDTWGYLLGYYYYKFAYCGQGTQVTVSS”, with “low polyreactivity”; and “QDQLVDSGGGLLQAGGSLRLSCAASGRIFVWNTMGWYRQAPGKERELVAAITSGGSTTFADSVKGRFTISRDNAKYTVYLQMNSLKPEDTAVYYCNTELDLYHPGDDYWGQGTQVTVSS”, with “high polyreactivity”; and “QDQLVDSGGGLVQAGGSLRLSCAASASTFDPNLMPSYRQAPGKEREVVAAISSRSGSTSYADSVKGRFTISRDNAKNTDYLQMNSLKPEDTAVYYCAARVYGLPLRMYSWGQGTQVTGSS”, with “high polyreactivity”.
With “QDQLVDSGGGLVQAGGSLRLSCAASGNIFTFNAMGWYRQAPGKERELVAAISRGGRTNYADSVKGRFTISRDNAKNTVYLQMNSLKPEDTAVYYCAAEFPQRASGGRYKTEYDYWRQGTQVTVSS”, the “polyreactivity (PSR sort gate)” value was “low polyreactivity”.
Consider “QDQLVDSGGGLVQAGGSLRLSCAASGYTFWDYAMGWYRQAPGKEREFVAGISFSDGGTYYADSVKGRFTISRDNAKNTVYLQMNSLKPEDTAVYYCAATYPYSWVYSGYYYWGQGTQVTVSS”, for which the “polyreactivity (PSR sort gate)” value is listed as “low polyreactivity”.
For “QDQLVDSGGGLVQAGGSLRLSCAPSGSTIYPNAKGWTRQAPGKERELVAGISSGGGTYYADSVKGRFTISRDNAKNTVYLQMNSLKPEDTAVYYCNAYFLSSCLDYLGQGTQVTVSS”, the “polyreactivity (PSR sort gate)” value is listed as “low polyreactivity”.
On to “QDQLVEAGGGVVQAGGSLRLSCAASVIIIDYYAMAWYRQAPAKERELDAAITSGGSTSYADSVKGRFTISRDNAKNTVYLQMNSLKPEDTAVYYCNNEPSGYQSAYWGQGTQVTVSS”, for which the “polyreactivity (PSR sort gate)” value was “low polyreactivity”.
Then “QDQLVESAGGLVQAGGSLRLICAATGSNFNRYAMGWYRQAAGKEREFVAAITRRGGNTYYADSVKGRFTISRDHPKNTVYLQMNSLKPVDTAVYYCAAPFYFPAGLLYYENNYWGHGTQVTVSS”, with “high polyreactivity”.
Then “QDQLVESAGGLVQAGGSLRLSCAASGNTFSTNPLGSYRQAAGKERELVATISRNGGSTSYAVSVKGRFTISRDNAKNSDYLKMYSLKAEDTAVYYCAARSVRPGPFSDDYWGQGTQVTVSS”, with “low polyreactivity”.
To “QDQLVESAGGLVQAGGSLRLSCAASGSNFYHYAMGWYRQAHGKERELVAAISQSGGGTYYADSVKGRFTISRDNAKNTVYLQMNSLKPEDTAVYYFAAKGRHNYYYWGQGTLVTVSS” belongs “high polyreactivity”; to “QDQLVESCGGLVQAGGSLRISCAASGRIFLPTAMGGYRQAPGKERELVAAINSSDASTDFADSVQGRFTISRDHAKTTVYLQRNSLKPEDTAVYYCAAENDTSDAVRYDYWGQGTQVTVSS”, “low polyreactivity”.
For “QDQLVESCGGLVQAGGSLRLICAAYGRIISINAMGWYRQAPVKERELVATISWRGGSTYYADSVKGRFTISRDNAKNTVYLQMNSLKPEDTAVYYCKKVFSERWARYFRYDYWVQGTQVTVSS”, the “polyreactivity (PSR sort gate)” value is reported as “high polyreactivity”.
Take “QDQLVESGAGLVQAGGSLRLSCAASGRTFAYNAMGWYRQAPGKERELVASITSGGSTNYADSVKGRFTISRDNAKNTVYLQMNCLKPEDTAVYYCNKDGKYHRVLYDYWGQGTQVTVSS”: the “polyreactivity (PSR sort gate)” value was “low polyreactivity”.
On to “QDQLVESGGCLVQAGGSHRLSSAASGIIIWYNTMGRYRQAPGKEREFFARISRRVGSTYYADSVKGRFTISRDNAKNTVYLQMNSLKPEDTAVYYCNRTRYRSFHYDYWGQGTKVTVSS”, for which the “polyreactivity (PSR sort gate)” value is “high polyreactivity”.
“QDQLVESGGCLVQAGGSLRLSCAASGNIFDTYVMGWYRQAPGKEMELVAAITSDGGTYYADSVKARFTISRDNAKNTVYLQMNSLKPEDTAVYYCAADTYYYPIHDYWGQGTQVTVSS”: the “polyreactivity (PSR sort gate)” value is on record as “low polyreactivity”.
In the case of “QDQLVESGGCLVQAGGSLRLSCAASGSISDSKAMGWYRQAPGKERELVAAISNGGSTNYADSVKGRFTISRDNAKNTVYLQMNSLKPEDTAVYYCARDYDIQNHEYDYWGQGTQVTVSS”, the “polyreactivity (PSR sort gate)” value is on record as “low polyreactivity”.
In the case of “QDQLVESGGGIVQEGGSLRLSCAASGLIFRVYAMGWYRQAPGKEWELVATITRGGRTYYADSVKGRFTISRDNAKNTVYLQMNSLKPEDTAVSYCAVLSVRRSYNYWGQGTQVTVSS”, the “polyreactivity (PSR sort gate)” value is given as “high polyreactivity”.
Then “QDQLVESGGGLDQAGGSLRLSCAASGRIFQKYAMACYRQAPGKERELVAAISSGDSTYADSVKGRFTISRDNAKNTVYLQMNSLKPEDTAVYYCAADSHYQEDFRIQYDYWGQGTQVTVSS”, with “low polyreactivity”.
To “QDQLVESGGGLFQAGGSLSLSCAASGNTFYWNAMGWYRQATGKEREFVAAISTTGVSTYYADSVKGRFTISRDNSKNTVYLQMNSLKPEDTAVYYCASEIIGYHTIYDYWGQGTQVTVSS” belongs “low polyreactivity”.
Then “QDQLVESGGGLGQAGGSLRLSCAASGSNFRPNAMGWYRQAPGKEMELVASITRNGGSTYYADSVKGRFTISRDNAKNTVYLQMNSLKPEDTAVYYCNAGYYYWGQGTQVTLSS”, with “high polyreactivity”.
Turning to “QDQLVESGGGLLQAGGSLRLICAASGYTLQGYAMGSSRQATGKERELVAAISSNGGSTYYADSVKGRFTISRDNAKNTVYLEMNSLKPEDTAVYYCNAQYIVYYRYARITKYDYWGQGTQVTVSS”, the “polyreactivity (PSR sort gate)” value is “high polyreactivity”.
In the case of “QDQLVESGGGLVEAGGSLRLSCAASGRTFWLNAMGWYRQAPGKERELVATISSSSGSTTYADSVKGRFTSSRDNAKNTVYIQMNSLKPEDTAVYYCNVDDPFYSGVVEFDYWGQGTQVTVSS”, the “polyreactivity (PSR sort gate)” value was “low polyreactivity”.
To “QDQLVESGGGLVHAGGSLRLSCAASVSIFVRNAMGWYRQAPGKERELVAADSVKGRFTISRDNAKNTVYLQMNSLKPEDTAVYYCNKDYIIRRGPIVYYGFDYWGQGTQVTVSS” belongs “low polyreactivity”; to “QDQLVESGGGLVHAGGSLRLSSAASGLTFSYYAMGWYRQAPGKERELVAAIDYSGGTTYADSVKGRFTISRDNAKNTVYLQMNSLKPEDTAVYYCADAPDGWFASGDEYWGHGTQVTVSS”, “high polyreactivity”; to “QDQLVESGGGLVKAGGSLRLSCAASGGTFYYYAMGWYRQAPGKERELVAANTRSGGNAYYADSVKARFTISRDNAKNTVYLLLHSLKPEDTAVYYCAAPFVNFVGSLVYAGYDSCGQGTQVTVSS”, “low polyreactivity”.
For “QDQLVESGGGLVQAGCSLRFTCAACGRIFHYYAMGWYRQAPGKERELVAAITSSRGSTYYADSVKGRFTISRDNAKKTGYVQMNSLQPEDTAVYYCAAGLIVGRFVRYDYWGQGTHVTVSS”, the “polyreactivity (PSR sort gate)” value is “high polyreactivity”.
To “QDQLVESGGGLVQAGGCLRLSCAASGSIFYIYGRGWYRQEPGKERELVAAISRSGGRTYYADSVKGRFTISRDTANNTVYLQMNSLKPEDTAVYYCAARDHYSTGGMNYWGQGTQVTVSS” belongs “high polyreactivity”.
To “QDQLVESGGGLVQAGGRLRLSSAASVSTFLPNTLGWYSQAHGKERELVADISWSGGSTYYADSVKGRLTISRDNAKNTVYLQMNRLKPEDTADSYCAADIASGYYWYDYWGQGTQVTVTS” belongs “low polyreactivity”; to “QDQLVESGGGLVQAGGSLGLSCAASGIIFYGYAMRWYRPAPGKERELVAAISRSGGSTYYADSVKGRFTISRDNAMNTVYLQMNSLKPEDTAVYYCAASGVTYDYWGQGTQVTVSS”, “high polyreactivity”; to “QDQLVESGGGLVQAGGSLPLSCAASGRTISAYAMGWYRQAPGKERELVAAISRRGGSTYYADSVKGRFSISRDNAKNTVYLQLNSLKPEETAVYYCAADVYKQYGYYYWGEGTQVTVSS”, “high polyreactivity”.
Then “QDQLVESGGGLVQAGGSLRISCAASGITFRYYAMGWYRQAPGKERELVAAITSGGRTYYADSVKGRFTISRDNAKNRVYLQMISLKPEDTAVYYGNAVTFSFYLYAWGQGTQVTVSS”, with “high polyreactivity”.
On to “QDQLVESGGGLVQAGGSLRLICAASGRTFWAYAMGWYRQAPGKERELVAAISVSGGRTYYADSVKGRFTISRDNAKNTVYLQMNSLKPEDTAVYYCNKRYLKSYEYYWGQGTHVTVSS”, for which the “polyreactivity (PSR sort gate)” value is on record as “high polyreactivity”.
For “QDQLVESGGGLVQAGGSLRLICAASGSNLNNYAMGWSRQAPGKERELVAAISSSGGTNYADSVKGRFTISRDNAKNTVYLQMNSLKPEDTAVYYCNADVLEGGYDYWGQGPQVTVSS”, the “polyreactivity (PSR sort gate)” value is on record as “low polyreactivity”.
In the case of “QDQLVESGGGLVQAGGSLRLSCAASAFTLSPNSMGWDRQAPGKEREFVAAISQRGGSTYYADSVKGRFTISRDNAKNTVYLQMNSLKPEDSAVYYCARDTKYKYDYWGQGTQVTVSS”, the “polyreactivity (PSR sort gate)” value is listed as “low polyreactivity”.
Then “QDQLVESGGGLVQAGGSLRLSCAASARIFERYAKGWYRPPPGKEMELVAAISYRGGRTYYADSVKGRFTISRVNAKNTVYLQMNSLKPEDTAVYYCAAYTYFRDWAEYDYWGQGTQVTVSS”, with “high polyreactivity”.
